Assay results reported in patent US20100227824A1 (SYMTHERA CANADA, published 2010).

Experiments:
Exodus-2 (CCL21) = biological target: T1, Exodus-2 (CCL21) (UniProt O00585 24-134); assay: micro-array, phage-presented peptide on printed CK
T1 construct: Bought chemokine
T1 sequence (looked up): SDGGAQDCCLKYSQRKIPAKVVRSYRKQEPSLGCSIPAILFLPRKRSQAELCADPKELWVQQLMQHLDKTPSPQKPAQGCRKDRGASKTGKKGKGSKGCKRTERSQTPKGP
Procedure: (§1) (1) Printing: Chemokine (CK) solution (in water) was serially diluted with Print Reagent (GenTel BioSurfaces USA) to final concentrations of 50 μg and 25 μg/ml. BSA/BSA-Biotin control solutions (in water) were diluted with Print Reagent to 100 μg/ml. Amplified stock of M13 phage control (M13KEgIII Cloning Vector, New England Biolabs, Cat.No.E8101S) was stored in Tris Buffered Saline (TBS; pH7.5, 4° C.) and diluted with Print Reagent to the working titre (10^8 pfu/μl). An automated spotting robot (16 pin print tool, 0.4mm head; BioRobotics, UK) was used to print the CK/BSA control/M13 control, 5 repeats per sample (CK 25 μg/ml and 50 μg/ml; BSA 100 μg/ml; M13 20 μl), on PATH Protein Microarray Slides (GenTel, Prod.No.2-1005/-1025) at […], and 50-70% relative humidity. Printed micro-array slides were stored at Room Temperature (RT) or 4° C. for at least 24 h before use.
(§2) (2) Blocking: Block Buffer (500 μl/partition; PATHblock, GenTel, Prod.No.2-1014) was applied to the slide for 1 hour at room temp (RT). After removal of Block Buffer, the slide was air dried for 25 minutes;
(§3) (11) Analysis: Quantitative analysis of micro-array was performed by the SpotReader program of Niles Scientific (USA) and presented as Relative Fluorescence (RF) as a function of CK concentration. Micro-array readout (Cy3 fluorescence) was quantified to determine the relative binding affinities of a CBP for the CKs and by inference, the specificity of the CBP for binding to a CK.

Eotaxin (CCL11) = biological target: T2, Eotaxin (CCL11) (UniProt P51671 24-97); assay: micro-array, phage-presented peptide on printed CK
T2 construct: Bought chemokine
Procedure: as §1, §2, §3

Eotaxin 2 (CCL24) = biological target: T3, Eotaxin 2 (CCL24) (UniProt O00175 27-104, limits assumed); assay: micro-array, phage-presented peptide on printed CK
T3 construct: Bought chemokine
T3 sequence (looked up): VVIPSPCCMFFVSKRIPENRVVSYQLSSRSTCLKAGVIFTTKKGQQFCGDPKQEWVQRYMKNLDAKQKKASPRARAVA
Procedure: as §1, §2, §3

I-309 (CCL1) = biological target: T4, I-309 (CCL1) (UniProt P22362 23-96, limits assumed); assay: micro-array, phage-presented peptide on printed CK
T4 construct: Bought chemokine
T4 sequence (looked up): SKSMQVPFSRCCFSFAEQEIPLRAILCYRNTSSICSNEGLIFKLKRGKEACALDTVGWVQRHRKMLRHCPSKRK
Procedure: as §1, §2, §3

CTAC (CCL27) = biological target: T5, CTAC (CCL27) (UniProt Q9Y4X3 25-112); assay: micro-array, phage-presented peptide on printed CK
T5 construct: Bought chemokine
T5 sequence (looked up): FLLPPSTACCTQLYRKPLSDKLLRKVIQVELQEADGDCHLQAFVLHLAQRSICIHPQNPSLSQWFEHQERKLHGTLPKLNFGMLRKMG
Procedure: as §1, §2, §3

BCA-1 (CXCL13) = biological target: T6, BCA-1 (CXCL13) (UniProt O43927 23-109); assay: micro-array, phage-presented peptide on printed CK
T6 construct: Bought chemokine
T6 sequence (looked up): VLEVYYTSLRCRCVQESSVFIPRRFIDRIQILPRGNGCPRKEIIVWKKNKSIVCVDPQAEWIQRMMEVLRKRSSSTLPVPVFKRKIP
Procedure: as §1, §2, §3

TECK (CCL25) = biological target: T7, TECK (CCL25) (UniProt O15444 24-150); assay: micro-array, phage-presented peptide on printed CK
T7 construct: Bought chemokine
T7 sequence (looked up): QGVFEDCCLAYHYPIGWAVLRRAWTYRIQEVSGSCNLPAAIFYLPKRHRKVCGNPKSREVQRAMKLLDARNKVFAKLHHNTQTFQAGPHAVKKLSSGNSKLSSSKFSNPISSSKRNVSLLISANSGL
Procedure: as §1, §2, §3

I-TAC (CXCL11) = biological target: T8, I-TAC (CXCL11) (UniProt O14625 22-94); assay: micro-array, phage-presented peptide on printed CK
T8 construct: Bought chemokine; also called I-TACK
T8 sequence (looked up): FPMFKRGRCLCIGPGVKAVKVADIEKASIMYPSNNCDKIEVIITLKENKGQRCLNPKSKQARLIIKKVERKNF
Procedure: as §1, §2, §3

MIP-3α (CCL20) = biological target: T9, MIP-3α (CCL20) (UniProt P78556 27-96); assay: micro-array, phage-presented peptide on printed CK
T9 construct: Bought chemokine
Procedure: as §1, §2, §3

MCP-2 (CCL8) = biological target: T10, MCP-2 (CCL8) (UniProt P80075 24-99); assay: micro-array, phage-presented peptide on printed CK
T10 construct: Bought chemokine
T10 sequence (looked up): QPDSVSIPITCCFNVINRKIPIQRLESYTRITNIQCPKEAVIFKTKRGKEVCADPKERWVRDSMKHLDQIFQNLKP
Procedure: as §1, §2, §3

MCP-1 (CCL2) = biological target: T11, MCP-1 (CCL2) (UniProt P13500 24-99); assay: micro-array, phage-presented peptide on printed CK
T11 construct: Bought chemokine
Procedure: as §1, §2, §3

Lymphotactin (XCL-1) = biological target: T12, Lymphotactin (XCL-1) (UniProt P47992 23-114, limits assumed); assay: micro-array, phage-presented peptide on printed CK
T12 construct: Bought chemokine
T12 sequence (looked up): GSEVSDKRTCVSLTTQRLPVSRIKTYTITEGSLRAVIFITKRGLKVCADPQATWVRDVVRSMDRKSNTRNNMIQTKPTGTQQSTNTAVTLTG
Procedure: as §1, §2, §3

SDF-1α (CXCL12) = biological target: T13, SDF-1α (CXCL12) (UniProt P48061-2 22-89); assay: micro-array, phage-presented peptide on printed CK
T13 construct: Alpha isoform of CXCL12; also called SDFα
Procedure: as §1, §2, §3

Mig (CXCL9) [1] = biological target: T14, Mig (CXCL9) (UniProt Q07325 23-125); assay: micro-array, phage-presented peptide on printed CK
T14 construct: Bought chemokine
T14 sequence (looked up): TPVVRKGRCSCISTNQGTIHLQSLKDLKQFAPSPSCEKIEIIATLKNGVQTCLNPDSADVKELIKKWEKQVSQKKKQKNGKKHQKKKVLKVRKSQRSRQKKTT
Procedure: as §1, §2, §3

Eotaxin 3 (CCL26) = biological target: T15, Eotaxin 3 (CCL26) (UniProt Q9Y258 24-94); assay: micro-array, phage-presented peptide on printed CK
T15 construct: Bought chemokine
T15 sequence (looked up): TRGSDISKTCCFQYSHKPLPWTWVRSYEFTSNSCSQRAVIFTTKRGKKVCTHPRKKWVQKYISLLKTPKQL
Procedure: as §1, §2, §3

IP-10 (CXCL10) = biological target: T16, IP-10 (CXCL10) (UniProt P02778 22-98); assay: micro-array, phage-presented peptide on printed CK
T16 construct: Bought chemokine
T16 sequence (looked up): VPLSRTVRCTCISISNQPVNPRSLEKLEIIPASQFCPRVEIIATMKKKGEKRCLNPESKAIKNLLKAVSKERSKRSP
Procedure: as §1, §2, §3

MCP-4 (CCL13) = biological target: T17, MCP-4 (CCL13) (UniProt Q99616 24-98); assay: micro-array, phage-presented peptide on printed CK
T17 construct: Bought chemokine
Procedure: as §1, §2, §3

MDC(69aa) (CCL22) = biological target: T18, MDC(69aa) (CCL22) (UniProt O00626 25-93); assay: micro-array, phage-presented peptide on printed CK
T18 construct: Bought chemokine
T18 sequence (looked up): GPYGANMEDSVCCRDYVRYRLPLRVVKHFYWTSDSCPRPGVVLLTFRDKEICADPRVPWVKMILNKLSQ
Procedure: as §1, §2, §3

SDF-1β (CXCL12) = biological target: T19, SDF-1β (CXCL12) (UniProt P48061 22-93); assay: micro-array, phage-presented peptide on printed CK
T19 construct: Beta isoform of CXCL12; also called SDFβ
Procedure: as §1, §2, §3

IL-8 (CXCL8) = biological target: T20, IL-8 (CXCL8) (UniProt P10145 28-99, limits assumed); assay: SPR, ProteOn XPR36, GLM chip
T20 construct: also called IL-8(72aa); IL-8(77aa)
T20 sequence (looked up): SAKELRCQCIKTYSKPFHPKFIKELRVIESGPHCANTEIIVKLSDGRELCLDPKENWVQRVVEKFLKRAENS
Procedure: (§4) Surface Plasmon Resonance (SPR): SPR was performed to make a quantitative determination of CK-peptide affinity. SPR measures the apparent equilibrium dissociation constant (KD) of the CK-binding peptide in the CK-peptide complex. KD is the ratio of the rate constants, Kd (1/s) and Kₐ (1/Ms), Kd/Kₐ. SPR was done with the ProteOn XPR36-Protein Interaction Array System (BioRad, Israel) with the Sensor Chip, GLM (sensor range 12-15 K response units).
(§5) Summary of Results: Affinity of Chemokine—Peptide Inteaction. […] The affinity with which peptides interact with CKs is relevant for low affinity reagents that are intended to engage multiple disease-related target proteins. SPR analysis was employed to determine the apparent equilibrium dissociation constants (KD) of CK-peptide complexes. […] Peptide binding in the micro-milli molar range is low affinity interaction. SPR analysis also corroborated differential binding measurements made by the micro-array analysis (FIG. 25b).

Mig (CXCL9) [2] = biological target: T14, Mig (CXCL9); assay: SPR, ProteOn XPR36, GLM chip
Procedure: as §4, §5

T17 sequence (Q99616 24-98 limits assumed): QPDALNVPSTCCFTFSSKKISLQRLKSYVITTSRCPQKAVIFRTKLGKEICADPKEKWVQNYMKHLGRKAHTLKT
T11 sequence (P13500 24-99 limits assumed): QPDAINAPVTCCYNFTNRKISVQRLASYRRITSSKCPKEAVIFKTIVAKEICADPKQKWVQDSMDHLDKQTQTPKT
T13 sequence (P48061 22-89 limits assumed): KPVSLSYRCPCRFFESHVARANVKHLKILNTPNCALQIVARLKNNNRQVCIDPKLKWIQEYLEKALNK
T9 sequence (P78556 27-96 limits assumed): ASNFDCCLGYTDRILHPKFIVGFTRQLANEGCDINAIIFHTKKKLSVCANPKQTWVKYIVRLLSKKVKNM
T19 sequence (P48061 22-93 limits assumed): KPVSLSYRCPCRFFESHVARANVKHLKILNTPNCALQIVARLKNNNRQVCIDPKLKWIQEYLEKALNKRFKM
T2 sequence (P51671 24-97 limits assumed): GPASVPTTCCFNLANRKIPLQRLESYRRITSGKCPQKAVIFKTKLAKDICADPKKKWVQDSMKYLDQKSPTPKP

Does WVFGAAMCK [Phage-Presented Peptide 8.8 (Ph-p8.8)] bind (Exodus-2 (CCL21))?
Result: binds

Does WVFGAAMCK [Phage-Presented Peptide 8.8 (Ph-p8.8)] bind (Eotaxin (CCL11))?
Result: binds

Does WVFGAAMCK [Phage-Presented Peptide 8.8 (Ph-p8.8)] bind (Eotaxin 2 (CCL24))?
Result: binds

Does WVFGAAMCK [Phage-Presented Peptide 8.8 (Ph-p8.8)] bind (I-309 (CCL1))?
Result: binds

Does WVFGAAMCK [Phage-Presented Peptide 8.8 (Ph-p8.8)] bind (CTAC (CCL27))?
Result: binds

Does WVFGAAMCK [Phage-Presented Peptide 8.8 (Ph-p8.8)] bind (BCA-1 (CXCL13))?
Result: binds

Does WVFGAAMCK [Phage-Presented Peptide 8.8 (Ph-p8.8)] bind (TECK (CCL25))?
Result: binds

Does WVFGAAMCK [Phage-Presented Peptide 8.8 (Ph-p8.8)] bind (I-TAC (CXCL11))?
Result: binds

Does WVFGAAMCK [Phage-Presented Peptide 8.8 (Ph-p8.8)] bind (MIP-3α (CCL20))?
Result: binds

And the “Relative Fluorescence Units (RFU)” value (MCP-2 (CCL8))?
Its value is > 15000 RFU.

What about the “Relative Fluorescence Units (RFU)” value (MCP-1 (CCL2)) of the same binder?
The value was > 15000 RFU.

Does WVFGAAMCK [Phage-Presented Peptide 8.8 (Ph-p8.8)] bind (Lymphotactin (XCL-1))?
Result: binds

Does WVFGAAMCK [Phage-Presented Peptide 8.8 (Ph-p8.8)] bind (SDF-1α (CXCL12))?
Result: binds

Does WVFGAAMCK [Phage-Presented Peptide 8.8 (Ph-p8.8)] bind (Mig (CXCL9) [1])?
Result: binds

Does WVFGAAMCK [Phage-Presented Peptide 8.8 (Ph-p8.8)] bind (Eotaxin 3 (CCL26))?
Result: binds

Does WVFGAAMCK [Phage-Presented Peptide 8.8 (Ph-p8.8)] bind (IP-10 (CXCL10))?
Result: binds

And the “Relative Fluorescence Units (RFU)” value (MCP-4 (CCL13))?
The value was > 15000 RFU.

Does WVFGAAMCK [Phage-Presented Peptide 8.8 (Ph-p8.8)] bind (MDC(69aa) (CCL22))?
Result: binds

Does WVFGAAMCK [Phage-Presented Peptide 8.8 (Ph-p8.8)] bind (SDF-1β (CXCL12))?
Result: binds

Which Kd (IL-8 (CXCL8)) does the source give for VTTFFDYDYGAPC (Peptide used in SPR; also called CB6R2) [CBP6 (VTTFFDYDYGAPC, from the N-terminal of CCR2)] here?
Its Kd is 1060 µM.

And the Kd (Mig (CXCL9) [2])?
Its Kd is 28.2 µM.
